Paper PMC4094350
Where two headings read alike, the source gives them in different places.

How the values were obtained:
GFP-Paxillin [1] = target: GFP-Paxillin (UniProt P49023); test: FRET or BRET
GFP-Paxillin [2] = target: GFP-Paxillin (UniProt P49023); test: FRET or BRET; remark: listed apart in the source
GFP-Paxillin [3] = target: GFP-Paxillin (UniProt P49023); test: FRET or BRET; remark: listed apart in the source
FAK FAT = FAK FAT (UniProt Q05397); test: ITC; conditions: cited from earlier work
Sequence of UniProt Q05397 (Q05397 914-1045): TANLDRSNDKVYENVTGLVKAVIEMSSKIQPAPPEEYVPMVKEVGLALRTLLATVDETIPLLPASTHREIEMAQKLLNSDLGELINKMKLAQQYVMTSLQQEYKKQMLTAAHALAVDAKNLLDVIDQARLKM

| Kd (GFP-Paxillin [1]) | Kd (GFP-Paxillin [2]) | Kd (GFP-Paxillin [3]) | Substance | Kd (FAK FAT) |
| --- | --- | --- | --- | --- |
| 209 nM | 367 nM | 209 nM | FAT-mCherry (from UniProt P34152 1-1052) (domain or fragment) |  |
|  |  |  | paxillin LD peptide LD motif (from UniProt P49023) | 10000 nM |
